Measurements: US11278600B2, “Human alpha-galactosidase variants” (Codexis, Inc., priority 2014, dated 2022)
Substitutions are numbered along the chain they refer to.

B1: 391 (protein)
chain: LDNGLARTPTMGWLHWERFMCNLDCQEEPDSCISEKLFMEMAERMVSEGWKDAGYEYLCIDDCWMAPQRDSEGRLQADPQRFPHGIRQLANYWHSKGLKLGIYADVGNKTCAGFPGSFGYYDIDAQTFADWGVDLLKFDGCYCDSLENLADGYKHMSLALNRTGRSIVYSCEWPLYMWPFQKPNYTEIRQYCNHWRNFADIDDSWKSIKSILDWTSRNQERIVDVAGPGGWNDPDMLVIGNFGLSWDQQVTQMALWAIMAAPLFMSNDLRHISPQAKALLQDKDVIAINQDPLGKQGYQLRKGDNFEVWERPLSGDAWAVAIINRQEIGGPRSYTIPVASLGKGVACNPACFITQLLPVKRQLGFYNWTSRLKSHINPTGTVLLQLENTMQMSLKDLL
modifications: Synthetic Polypeptide sequence of Variant No. 391 of mature Human GLA
B2: 398 (protein)
chain: B1 chain with W93V, A159S
modifications: Synthetic Polypeptide sequence of Variant No. 398 of mature Human GLA
B3: 392 (protein)
chain: B1 chain with W93T
modifications: Synthetic Polypeptide sequence of Variant No. 392 of mature Human GLA
B4: 402 (protein)
chain: B1 chain with W93V, S166P, K206A
modifications: Synthetic Polypeptide sequence of Variant No. 402
B5: 395 (protein)
chain: B1 chain with Y92H, W93V, K206A
modifications: Synthetic Polypeptide sequence of Variant No. 395
B6: 396 (protein)
chain: B1 chain with W93V, L158M
modifications: Synthetic Polypeptide sequence of Variant No. 396 of mature Human GLA
B7: 397 (protein)
chain: B1 chain with W93V, L158R
modifications: Synthetic Polypeptide sequence of Variant No. 397 of mature Human GLA
B8: 394 (protein)
chain: B1 chain with W93R
modifications: Synthetic Polypeptide sequence of Variant No. 394 of mature Human GLA
B9: 401 (protein)
chain: B1 chain with W93V, T163S
modifications: Synthetic Polypeptide sequence of Variant No. 401 of mature Human GLA
B10: 399 (protein)
chain: B1 chain with W93V, R165K
modifications: Synthetic Polypeptide sequence of Variant No. 399 of mature Human GLA
B11: 400 (protein)
chain: B1 chain with W93V, L158C
modifications: Synthetic Polypeptide sequence of Variant No. 400 of mature Human GLA
B12: 361 (protein)
chain: B1 chain with S47R, W93V
modifications: Synthetic Polypeptide sequence of Variant No. 361 of mature Human GLA
B13: 393 (protein)
chain: B1 chain with W93G
modifications: Synthetic Polypeptide sequence of Variant No. 393 of mature Human GLA

Assay: HTP-analysis of supernatants pretreated with base (MUGal hydrolysis)
Type: biochemical
Details: activity of the variant/activity of Rd4BB (SEQ ID NO: 15); challenge at pH 9.65
In short: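 Supernatants from INVSc1 yeast expressing GLA variants (SD-Ura, 66-84 h, 30° C) were mixed with McIlvaine buffer pH 7.0-8.2 or 200 mM sodium bicarbonate pH 9.1-9.7 and held 1-18 h at 37° C. Residual activity was then measured on MUGal at pH 4.8/4.3, 37° C, 30-180 min, by fluorescence (Ex 355/Em 448 nm).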

Which “Relative Activity of GLA Variants After Challenge at pH 9.65” value (“Relative Activity … at pH 9.65” below) does the source give for B1 here?
Its value is “− (<0.5 relative activity over Rd4BB (SEQ ID NO: 15))”.

For B2, which “Relative Activity … at pH 9.65” value is on record?
The value was “− (<0.5 relative activity over Rd4BB (SEQ ID NO: 15))”.

For B3, which “Relative Activity … at pH 9.65” value is on record?
Its value is “− (<0.5 relative activity over Rd4BB (SEQ ID NO: 15))”.

With B4 as the molecule, how does the “Relative Activity … at pH 9.65” value read?
The value was “+ (0.5 to 1.5 relative activity over Rd4BB (SEQ ID NO: 15))”.

Which “Relative Activity … at pH 9.65” value does the source give for B5 here?
The value was “+ (0.5 to 1.5 relative activity over Rd4BB (SEQ ID NO: 15))”.

For B6, which “Relative Activity … at pH 9.65” value is on record?
Its value is “+ (0.5 to 1.5 relative activity over Rd4BB (SEQ ID NO: 15))”.

For B7, which “Relative Activity … at pH 9.65” value is on record?
The value was “+ (0.5 to 1.5 relative activity over Rd4BB (SEQ ID NO: 15))”.

With B8 as the molecule, how does the “Relative Activity … at pH 9.65” value read?
Its value is “− (<0.5 relative activity over Rd4BB (SEQ ID NO: 15))”.

With B9 as the molecule, how does the “Relative Activity … at pH 9.65” value read?
The value was “− (<0.5 relative activity over Rd4BB (SEQ ID NO: 15))”.

For B10, which “Relative Activity … at pH 9.65” value is on record?
Its value is “+ (0.5 to 1.5 relative activity over Rd4BB (SEQ ID NO: 15))”.

With B11 as the molecule, how does the “Relative Activity … at pH 9.65” value read?
The value was “− (<0.5 relative activity over Rd4BB (SEQ ID NO: 15))”.

With B12 as the molecule, how does the “Relative Activity … at pH 9.65” value read?
The value was “+ (0.5 to 1.5 relative activity over Rd4BB (SEQ ID NO: 15))”.

For B13, which “Relative Activity … at pH 9.65” value is on record?
The value was “− (<0.5 relative activity over Rd4BB (SEQ ID NO: 15))”.

Assay: HTP-analysis of supernatants pretreated with acid (MUGal hydrolysis)
Type: biochemical
Details: activity of the variant/activity of Rd4BB (SEQ ID NO: 15); challenge at pH 3.7
In short: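 MUGal hydrolysis was tracked by fluorescence (Ex 355 nm, Em 448 nm) after a 30-180 min reaction at 37° C. in pH 4.8 McIlvaine/citrate buffer, stopped with 1 M sodium carbonate. Beforehand, yeast (INVSc1) culture supernatants carrying GLA variants were held 1-3 h at 37° C. in acidic McIlvaine buffer, pH 3.3-4.3.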

Which “Relative Activity of GLA Variants After Challenge at pH 3.7” value (“Relative Activity … at pH 3.7” below) does the source give for B1 here?
The value was “+ (0.5 to 1.5 relative activity over Rd4BB (SEQ ID NO: 15))”.

Which “Relative Activity … at pH 3.7” value does the source give for B2 here?
The value was “++ (>1.5 to 2.5 relative activity over Rd4BB (SEQ ID NO: 15))”.

Which “Relative Activity … at pH 3.7” value does the source give for B3 here?
The value was “+ (0.5 to 1.5 relative activity over Rd4BB (SEQ ID NO: 15))”.

Which “Relative Activity … at pH 3.7” value does the source give for B4 here?
Its value is “++ (>1.5 to 2.5 relative activity over Rd4BB (SEQ ID NO: 15))”.

For B5, which “Relative Activity … at pH 3.7” value is on record?
Its value is “+ (0.5 to 1.5 relative activity over Rd4BB (SEQ ID NO: 15))”.

For B6, which “Relative Activity … at pH 3.7” value is on record?
The value was “+ (0.5 to 1.5 relative activity over Rd4BB (SEQ ID NO: 15))”.

With B7 as the molecule, how does the “Relative Activity … at pH 3.7” value read?
The value was “+ (0.5 to 1.5 relative activity over Rd4BB (SEQ ID NO: 15))”.

With B8 as the molecule, how does the “Relative Activity … at pH 3.7” value read?
Its value is “+ (0.5 to 1.5 relative activity over Rd4BB (SEQ ID NO: 15))”.

Which “Relative Activity … at pH 3.7” value does the source give for B9 here?
Its value is “+ (0.5 to 1.5 relative activity over Rd4BB (SEQ ID NO: 15))”.

With B10 as the molecule, how does the “Relative Activity … at pH 3.7” value read?
Its value is “+ (0.5 to 1.5 relative activity over Rd4BB (SEQ ID NO: 15))”.

For B11, which “Relative Activity … at pH 3.7” value is on record?
Its value is “+ (0.5 to 1.5 relative activity over Rd4BB (SEQ ID NO: 15))”.

Which “Relative Activity … at pH 3.7” value does the source give for B12 here?
The value was “+ (0.5 to 1.5 relative activity over Rd4BB (SEQ ID NO: 15))”.

For B13, which “Relative Activity … at pH 3.7” value is on record?
Its value is “− (<0.5 relative activity over Rd4BB (SEQ ID NO: 15))”.

Assay: HTP-analysis of yeast culture supernatants, no challenge (MUGal hydrolysis)
Type: biochemical
Details: activity of the variant/activity of Rd4BB (SEQ ID NO: 15)
In short: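 Activity read as 4-methylumbelliferyl α-D-galactopyranoside hydrolysis: fluorescence (355/448 nm) after sodium carbonate stop, following 30-180 min at 37° C with 2 mM MUGal stock at pH 4.6–4.8. Enzyme source is unchallenged culture supernatant of INVSc1 yeast expressing GLA variants, grown 66-84 h at 30° C.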

Which “Relative Activity of GLA Variants After No Challenge (NC)” value does the source give for B1 here?
The value was “+ (0.5 to 1.5 relative activity over Rd4BB (SEQ ID NO: 15))”.

Which “Relative Activity of GLA Variants After No Challenge (NC)” value does the source give for B2 here?
Its value is “+ (0.5 to 1.5 relative activity over Rd4BB (SEQ ID NO: 15))”.

For B3, which “Relative Activity of GLA Variants After No Challenge (NC)” value is on record?
The value was “+ (0.5 to 1.5 relative activity over Rd4BB (SEQ ID NO: 15))”.

For B4, which “Relative Activity of GLA Variants After No Challenge (NC)” value is on record?
The value was “+ (0.5 to 1.5 relative activity over Rd4BB (SEQ ID NO: 15))”.

With B5 as the molecule, how does the “Relative Activity of GLA Variants After No Challenge (NC)” value read?
Its value is “+ (0.5 to 1.5 relative activity over Rd4BB (SEQ ID NO: 15))”.

With B6 as the molecule, how does the “Relative Activity of GLA Variants After No Challenge (NC)” value read?
The value was “+ (0.5 to 1.5 relative activity over Rd4BB (SEQ ID NO: 15))”.

With B7 as the molecule, how does the “Relative Activity of GLA Variants After No Challenge (NC)” value read?
Its value is “+ (0.5 to 1.5 relative activity over Rd4BB (SEQ ID NO: 15))”.

For B8, which “Relative Activity of GLA Variants After No Challenge (NC)” value is on record?
The value was “+ (0.5 to 1.5 relative activity over Rd4BB (SEQ ID NO: 15))”.

For B9, which “Relative Activity of GLA Variants After No Challenge (NC)” value is on record?
The value was “+ (0.5 to 1.5 relative activity over Rd4BB (SEQ ID NO: 15))”.

With B10 as the molecule, how does the “Relative Activity of GLA Variants After No Challenge (NC)” value read?
Its value is “+ (0.5 to 1.5 relative activity over Rd4BB (SEQ ID NO: 15))”.

With B11 as the molecule, how does the “Relative Activity of GLA Variants After No Challenge (NC)” value read?
Its value is “+ (0.5 to 1.5 relative activity over Rd4BB (SEQ ID NO: 15))”.

Which “Relative Activity of GLA Variants After No Challenge (NC)” value does the source give for B12 here?
Its value is “+ (0.5 to 1.5 relative activity over Rd4BB (SEQ ID NO: 15))”.

Which “Relative Activity of GLA Variants After No Challenge (NC)” value does the source give for B13 here?
Its value is “+ (0.5 to 1.5 relative activity over Rd4BB (SEQ ID NO: 15))”.
